Experimental data: PMC6155775, “Role of Quinone Reductase 2 in the Antimalarial Properties of Indolone-Type Derivatives” (Molecules : A Journal of Synthetic Chemistry and Natural …, 2017)

Substrate: CC1=CC(=O)c2ccccc2C1=O
Test: enzyme kinetics (KM) by BNAH fluorescence decrease; reference substrate
Type: biochemical, Homo sapiens
Conditions: FAD; pH 8.5; 37.0 °C

B1: human quinone reductase 2 (hQR2) (Homo sapiens) (protein)
chain: MAGKKVLIVYAHQEPKSFNGSLKNVAVDELSRQGCTVTVSDLYAMNLEPRATDKDITGTLSNPEVFNYGVETHEAYKQRSLASDITDEQKKVREADLVIFQFPLYWFSVPAILKGWMDRVLCQGFAFDIPGFYDSGLLQGKLALLSVTTGGTAEMYTKTGVNGDSRYFLWPLQHGTLHFCGFKVLAPQISFAPEIASEEERKGMVAAWSQRLQTIWKEEPIPCTAHWHFGQ
notes: 6his-hQR2
- Km: 10 ± 1 µM
